B1: Clone 19 anti-PD-1 antibody (antibody, V domains shown)
VH: QVQLQQSGAELVKPGASVKMSCKAFGYTFTTYPIEWMKQNHGKSLEWIGNFHPYNDDTKYNEKFKGKAKLTVEKSSTTVYLELSRLTSDDSAVYYCARENYGSHGGFVYWGQGTLVTV
VL: ENVLTQSPAIMSASPGEKVTMTCRASSSVISSYLHWYQQKSGASPKLWIYSTSNLASGVPDRFSGSGSGTSYSLTISSVEAEDAATYYCQQYNGYPLTFGAGTKLEIK
B2: Clone 2 anti-PD-1 antibody (antibody, V domains shown)
VH: QVQLQQPGAELVKPGASVKLSCKASGYTFTTYYLYWVRQRPGQGLEWIGGINPSNGGTNFNEKFKSKATLTVDKSSSTAYMQLNSLTSEDSAVYYCTRRDYRYDRGFDYWGQGTSVTV
VL: DIVLTQSPASLAVSLGQRATISCRASKSVSTSGFNYIHWYQQKPGQPPKLLIYLASNLESGVPARFSGSGSGTDFTLNIHPVEDEDAATYYCQHSRELPLTFGAGTKLEIK
B3: Clone 10 anti-PD-1 antibody (antibody, V domains shown)
VH: DVQLQESGPGLVKPSQSLSLTCTVTGYSITSDYAWNWIRQFPGNKLEWMGYINYSGSTSYNPSLKSRISITRDTSKNQFFLQLNSVTTEDTATYYCARWIGSSAWYFDVWGAGTTVTV
VL: DVLMTQTPLSLPVSLGDQASISCRSGQNIVHSNGNTYLEWYLQKPGQSPKLLIYKVSNRFFGVPDRISGSGSGTDFTLKISRVEAEDLGVYFCFQGSHVPFTFGSGTKLEIK

Target: Monomeric soluble human PD-1 (human, UniProt Q15116 25-170)
Sequence (Q15116 25-170): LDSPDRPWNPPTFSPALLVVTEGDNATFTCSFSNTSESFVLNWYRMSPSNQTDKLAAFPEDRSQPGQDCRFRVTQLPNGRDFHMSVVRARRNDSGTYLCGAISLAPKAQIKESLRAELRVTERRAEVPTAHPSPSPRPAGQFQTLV
Test: SPR; pH 7.4

Binder | koff [s⁻¹]
B1 | ~0.0013
B2 | ~0.0027
B3 | ~0.4
